Experimental data published in paper PMC5063953 (Biochemical Pharmacology, 2016).
Like-named read-outs stand apart in the source and are kept apart here. No end group written: not given here.

Experiments:
hVPAC1R = settings: cited from earlier work
hVPAC2R = settings: ref [35], cited from earlier work
hCRF-1R = settings: ref [44], cited from earlier work
[1] = target: N-terminally double c-myc labelled wildtype human GLP-1R (human) (UniProt P43220)
[2] = target: human GLP-1R E7.63^408A (human) (UniProt P43220)
[3] = target: human GLP-1R K4.64^288A (human) (UniProt P43220)
[4] = target: human GLP-1R K6.35^346A (human) (UniProt P43220)
[5] = target: human GLP-1R K6.40^351A (human) (UniProt P43220)
[6] = target: human GLP-1R N2.52^182A (human) (UniProt P43220)
[7] = target: human GLP-1R Q7.65^410A (human) (UniProt P43220)
[8] = target: human GLP-1R R2.46^176A (human) (UniProt P43220)
[9] = target: human GLP-1R R3.30^227A (human) (UniProt P43220)
[10] = target: human GLP-1R R5.40^310A (human) (UniProt P43220)
[11] = target: human GLP-1R R5.56^326A (human) (UniProt P43220)
[12] = target: human GLP-1R R6.37^348A (human) (UniProt P43220)
[13] = target: human GLP-1R Y3.53^250A (human) (UniProt P43220)
[14] = target: N-terminally double c-myc labelled wildtype human GLP-1R (human) (UniProt P43220); assay: radioligand binding
[15] = target: human GLP-1R E7.63^408A (human) (UniProt P43220); assay: radioligand binding
[16] = target: human GLP-1R K4.64^288A (human) (UniProt P43220); assay: radioligand binding
[17] = target: human GLP-1R K6.35^346A (human) (UniProt P43220); assay: radioligand binding
[18] = target: human GLP-1R K6.40^351A (human) (UniProt P43220); assay: radioligand binding
[19] = target: human GLP-1R Q7.65^410A (human) (UniProt P43220); assay: radioligand binding
[20] = target: human GLP-1R R2.46^176A (human) (UniProt P43220); assay: radioligand binding
[21] = target: human GLP-1R R3.30^227A (human) (UniProt P43220); assay: radioligand binding
[22] = target: human GLP-1R R5.40^310A (human) (UniProt P43220); assay: radioligand binding
[23] = target: human GLP-1R R5.56^326A (human) (UniProt P43220); assay: radioligand binding
[24] = target: human GLP-1R R6.37^348A (human) (UniProt P43220); assay: radioligand binding
[25] = target: human GLP-1R Y3.53^250A (human) (UniProt P43220); assay: radioligand binding
hCLR-RAMP1 = settings: cited from earlier work
rSecR = settings: ref [14], cited from earlier work
hSecR = settings: cited from earlier work
SecR = settings: R2.46A; ref [17]; cited from earlier work
rGCGR = settings: ref [52], cited from earlier work
hGCGR = settings: ref [15], cited from earlier work
hCLR-RAMP2 = settings: ref [60], cited from earlier work
hCLR-RAMP3 = settings: ref [60], cited from earlier work
oPTH-1R = settings: ref [57], cited from earlier work

## vasoactive intestinal polypeptide [VIP]
hVPAC1R; E7.63A, ref [13]
  Effect compared with WT: cAMP production: Decreased VIP mediated cAMP production
hVPAC1R; R6.37A, ref [13]
  Effect compared with WT: cAMP production: No effect on VIP mediated cAMP production
hVPAC1R; R6.40A, ref [36]
  Effect compared with WT: IP3 production: Reduced VIP mediated IP3 production
  Effect compared with WT: cAMP: no effect on cAMP
hVPAC1R; Y3.53A, ref [55]
  Effect compared with WT: cAMP production: Reduced VIP mediated cAMP production
hVPAC1R; Y6.35A, ref [13]
  Effect compared with WT: cAMP: No effect on VIP mediated cAMP
hVPAC2R; R6.37A
  Effect compared with WT: cAMP potency: Reduced VIP mediated cAMP potency
hVPAC2R; R6.40A
  Effect compared with WT: cAMP potency: Reduced VIP mediated cAMP potency

## corticotropin-releasing factor [CRF]
hCRF-1R; K6.37A
  Effect compared with WT: cAMP potency (Gs): Increased CRF mediated cAMP potency (Gs)
  Effect compared with WT: pERK1/2 (Gi): reduced pERK1/2 (Gi)

## exendin-4 (from UniProt P26349 48-87) (peptide)
[1]
  −Log KA (functional affinity) from operational model fit of cAMP accumulation curves: 9.24 −Log KA
  −Log KA (functional affinity) from operational model fit of iCa2+ mobilisation curves: 7.46 −Log KA
  −Log KA (functional affinity) from operational model fit of pERK1/2 curves: 8.31 −Log KA
[2]
  −Log KA (functional affinity) from operational model fit of cAMP accumulation curves: 8.89 −Log KA
  −Log KA (functional affinity) from operational model fit of iCa2+ mobilisation curves: 7.01 −Log KA
  −Log KA (functional affinity) from operational model fit of pERK1/2 curves: 8.35 −Log KA
[3]
  −Log KA (functional affinity) from operational model fit of cAMP accumulation curves: 8.16 −Log KA
  −Log KA (functional affinity) from operational model fit of pERK1/2 curves: 7.01 −Log KA
[4]
  −Log KA (functional affinity) from operational model fit of cAMP accumulation curves: 9.91 −Log KA
  −Log KA (functional affinity) from operational model fit of iCa2+ mobilisation curves: 7.78 −Log KA
  −Log KA (functional affinity) from operational model fit of pERK1/2 curves: 8.21 −Log KA
[5]
  −Log KA (functional affinity) from operational model fit of cAMP accumulation curves: 9.31 −Log KA
  −Log KA (functional affinity) from operational model fit of iCa2+ mobilisation curves: 7.15 −Log KA
  −Log KA (functional affinity) from operational model fit of pERK1/2 curves: 8.12 −Log KA
[6]
  −Log KA (functional affinity) from operational model fit of cAMP accumulation curves: 9.16 −Log KA
  −Log KA (functional affinity) from operational model fit of pERK1/2 curves: 8.21 −Log KA
[7]
  −Log KA (functional affinity) from operational model fit of cAMP accumulation curves: 9.41 −Log KA
  −Log KA (functional affinity) from operational model fit of iCa2+ mobilisation curves: 7.1 −Log KA
  −Log KA (functional affinity) from operational model fit of pERK1/2 curves: 8.35 −Log KA
[8]
  −Log KA (functional affinity) from operational model fit of cAMP accumulation curves: 8.95 −Log KA
  −Log KA (functional affinity) from operational model fit of iCa2+ mobilisation curves: 7.39 −Log KA
  −Log KA (functional affinity) from operational model fit of pERK1/2 curves: 8.12 −Log KA
[9]
  −Log KA (functional affinity) from operational model fit of cAMP accumulation curves: 8.13 −Log KA
  −Log KA (functional affinity) from operational model fit of iCa2+ mobilisation curves: 6.82 −Log KA
  −Log KA (functional affinity) from operational model fit of pERK1/2 curves: 7.31 −Log KA
[10]
  −Log KA (functional affinity) from operational model fit of cAMP accumulation curves: 7.79 −Log KA
  −Log KA (functional affinity) from operational model fit of pERK1/2 curves: 7.53 −Log KA
[11]
  −Log KA (functional affinity) from operational model fit of cAMP accumulation curves: 9.22 −Log KA
  −Log KA (functional affinity) from operational model fit of iCa2+ mobilisation curves: 7.1 −Log KA
  −Log KA (functional affinity) from operational model fit of pERK1/2 curves: 8.33 −Log KA
[12]
  −Log KA (functional affinity) from operational model fit of cAMP accumulation curves: 9.37 −Log KA
  −Log KA (functional affinity) from operational model fit of iCa2+ mobilisation curves: 7.08 −Log KA
  −Log KA (functional affinity) from operational model fit of pERK1/2 curves: 8.35 −Log KA
[13]
  −Log KA (functional affinity) from operational model fit of cAMP accumulation curves: 9.37 −Log KA
  −Log KA (functional affinity) from operational model fit of pERK1/2 curves: 8.11 −Log KA
[14]
  pKi: 8.87 pKi
[15]
  pKi: 8.29 pKi
[16]
  pKi: 7.39 pKi
[17]
  pKi: 9.34 pKi
[18]
  pKi: 8.92 pKi
[19]
  pKi: 9.08 pKi
[20]
  pKi: 8.61 pKi
[21]
  pKi: 7.6 pKi
[22]
  pKi: 7.99 pKi
[23]
  pKi: 8.59 pKi
[24]
  pKi: 8.8 pKi
[25]
  pKi: 8.68 pKi

## calcitonin gene related peptide [CGRP]
hCLR-RAMP1; E7.63A, ref [59]
  Effect compared with WT: cAMP potency: Reduced CGRP-mediated cAMP potency
hCLR-RAMP1; H5.40A, ref [59]
  Effect compared with WT: cAMP pEC50: Reduced CGRP-mediated cAMP pEC50
hCLR-RAMP1; K3.30A, ref [59]
  Effect compared with WT: cAMP production: No effect on CGRP mediated cAMP production
hCLR-RAMP1; K6.37A, ref [10]
  Effect compared with WT: cAMP production: No effect on CGRP mediated cAMP production
hCLR-RAMP1; N2.52A, ref [59]
  Effect compared with WT: affinity or cAMP production: No effect on CGRP affinity or cAMP production
hCLR-RAMP1; N5.56A, ref [59]
  Effect compared with WT: cAMP production: No effect on CGRP cAMP mediated production
hCLR-RAMP1; R2.46A, ref [59]
  Effect compared with WT: cAMP potency: Reduced CGRP mediated cAMP potency.
hCLR-RAMP1; R4.64A, ref [59]
  Effect compared with WT: cAMP pEC50: Reduced CGRP mediated cAMP pEC50.
hCLR-RAMP1; R4.64 mutated, ref [60], [63]
  function upon mutation of R4.64, in words: not CGRP function
hCLR-RAMP1; R6.40A, ref [10]
  reduction in affinity compared with WT: 5 fold
  reduction in cAMP production compared with WT: 30 fold

## secretin: agonist of the secretin receptor
rSecR; R3.30A
  Effect compared with WT: cAMP production: Reduced secretin-mediated cAMP production
rSecR; R4.64A
  Effect compared with WT: cAMP potency: Decreased secretin mediated cAMP potency.
hSecR; R6.37A/K6.40A, ref [17]
  Effect compared with WT: affinity or receptor expression: no effect on affinity or receptor expression
  Effect compared with WT: cAMP and calcium: Reduced secretin mediated cAMP and calcium
hSecR; R6.37A, ref [8]
  Effect compared with WT: cAMP production: No effect on secretin mediated cAMP production
SecR
  Effect compared with WT: cAMP potency: not cAMP potency
  Effect compared with WT: calcium potency: Decreased secretin mediated calcium potency

## glucagon: peptide agonist of the glucagon receptor
rGCGR; E7.63A
  Effect compared with WT: potency in CRE reporter activity assay: Enhanced basal activity and enhanced potency in glucagon mediated CRE reporter activity assay
rGCGR; N7.61A
  Effect compared with WT: potency in CRE reporter activity assay: Enhanced potency in glucagon mediated CRE reporter activity assay
rGCGR; R6.37A
  Effect compared with WT: CRE reporter activity: Enhanced glucagon mediated CRE reporter activity (potency and Emax)
hGCGR; K4.64L
  Effect compared with WT: affinity: Reduced glucagon affinity
hGCGR; R3.30A
  Effect compared with WT: expression and affinity: Reduced expression and glucagon affinity
hGCGR; R5.40A
  Effect compared with WT: expression and affinity: Reduced expression and glucagon affinity

## urocortin: agonist at hCRF-1R (DNPSLSIDLTFHLLRTLLELARTQSQRERAEQNRIIFDSV; ends and bridges not checked; UniProt P55089 83-122, looked up)
hCRF-1R; K6.40A
  Effect compared with WT: IP3 (Gq): reduced IP3 (Gq)
  Effect compared with WT: cAMP (Gs): Increased urocortin mediated cAMP (Gs)

## adrenomedullin: agonist at CLR-RAMP2 or CLR-RAMP3 complexes (YRQSMNNFQGLRSFGCRFGTCTVQKLAHQIYQFTDKDKDNVAPRSKISPQGY; ends and bridges not checked; cysteine pairing not given here; UniProt P35318 95-146, looked up)
hCLR-RAMP2; K3.30A
  Effect compared with WT: cAMP production: Reduced adrenomedullin cAMP production
hCLR-RAMP2; R4.64A
  Effect compared with WT: cAMP production: Reduced adrenomedullin mediated cAMP production
hCLR-RAMP2; R4.64 mutated, [63]
  function upon mutation of R4.64, in words: altered adrenomedullin function
hCLR-RAMP3; K3.30A
  Effect compared with WT: cAMP production: Reduced adrenomedullin cAMP production
hCLR-RAMP3; R4.64A
  Effect compared with WT: cAMP production: Reduced adrenomedullin mediated cAMP production
hCLR-RAMP3; R4.64 mutated, [63]
  function upon mutation of R4.64, in words: altered adrenomedullin function

B1: parathyroid hormone (peptide, UniProt P01270 32-115, looked up)
Parathyroid hormone: SVSEIQLMHNLGKHLNSMERVEWLRKKLQDVHNFVALGAPLAPRDAGSQRPRKKEDNVLVESHEKSLGEADKADVNVLTKAKSQ
modifications: Parathyroid hormone
oPTH-1R; E7.63 K
  Effect compared with WT: cAMP: No effect on PTH mediated cAMP
oPTH-1R; H2.52A
  Effect compared with WT: cAMP production: No effect on PTH-1 cAMP production.
oPTH-1R; R4.64A
  Effect compared with WT: cAMP: No effect on PTH mediated cAMP
